Results as given in publication PMC11257959.

Test system: NG-RYBP (Homo sapiens)
Experiment: EMSA
Conditions: n=3; almost fourfold; EMSA: 25 mM Tris-HCl pH 7.5, 50 mM NaCl, 0.05% Tween 20, 5 mM MgCl2, 4% glycerol, 0.2 nM nucleosome, 10 min on ice, 1% agarose 0.4x TBE; cryo-EM binding: 50 mM …

Nuc (EMSA, 201 bp 601)
binding signal (fold lower affinity than NucH2Aub1): 4
